Measured values as given in the supplement of paper PMC10567573.

B1: TEKT4 (parent)
chain: YARYHQAFADRDQSERQRHESQQL

Variants of: B1
Experiment: protein stability index of a GFP-peptide fusion (GPS, HEK-293T) (PSI 1-6); higher = more stable
Conditions: c terminus: a fixed tail appended
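Further: lentivirally expressed fusions sorted by FACS into six bins by GFP to DsRed ratio, PSI derived from sequencing read proportions per bin multiplied by bin number.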

Variant	protein stability index
YARYHSAFADRDQSERQRHESQQL [Q6S]	1.77
YARYHTAFADRDQSERQRHESQQL [Q6T]	2.34
YARYHVAFADRDQSERQRHESQQL [Q6V]	2.69
YARYHWAFADRDQSERQRHESQQL [Q6W]	2.08
YARYHYAFADRDQSERQRHESQQL [Q6Y]	2.54
YARYHQCFADRDQSERQRHESQQL [A7C]	2.88
YARYHQDFADRDQSERQRHESQQL [A7D]	3.7
YARYHQEFADRDQSERQRHESQQL [A7E]	3.72
YARYHQFFADRDQSERQRHESQQL [A7F]	2.99
YARYHQGFADRDQSERQRHESQQL [A7G]	3.18
YARYHQHFADRDQSERQRHESQQL [A7H]	2.2
YARYHQIFADRDQSERQRHESQQL [A7I]	1.81
YARYHQKFADRDQSERQRHESQQL [A7K]	3.25
YARYHQLFADRDQSERQRHESQQL [A7L]	3.3
YARYHQNFADRDQSERQRHESQQL [A7N]	3.07
YARYHQPFADRDQSERQRHESQQL [A7P]	3.56
YARYHQQFADRDQSERQRHESQQL [A7Q]	3.03
YARYHQRFADRDQSERQRHESQQL [A7R]	3.5
YARYHQSFADRDQSERQRHESQQL [A7S]	3.2
YARYHQTFADRDQSERQRHESQQL [A7T]	3.48
YARYHQVFADRDQSERQRHESQQL [A7V]	2.06
YARYHQWFADRDQSERQRHESQQL [A7W]	2.02
YARYHQYFADRDQSERQRHESQQL [A7Y]	1.69
YARYHQAAADRDQSERQRHESQQL [F8A]	4.75

Variant	protein stability index
YARYHQACADRDQSERQRHESQQL [F8C]	3.97
YARYHQADADRDQSERQRHESQQL [F8D]	4.63
YARYHQAEADRDQSERQRHESQQL [F8E]	4.14
YARYHQAGADRDQSERQRHESQQL [F8G]	3.83
YARYHQAHADRDQSERQRHESQQL [F8H]	4.58
YARYHQAIADRDQSERQRHESQQL [F8I]	4.31
YARYHQAKADRDQSERQRHESQQL [F8K]	4.01
YARYHQALADRDQSERQRHESQQL [F8L]	4.72
YARYHQAMADRDQSERQRHESQQL [F8M]	3.92
YARYHQANADRDQSERQRHESQQL [F8N]	4.61
YARYHQAPADRDQSERQRHESQQL [F8P]	4.75
YARYHQAQADRDQSERQRHESQQL [F8Q]	4
YARYHQARADRDQSERQRHESQQL [F8R]	3.73
YARYHQASADRDQSERQRHESQQL [F8S]	3.86
YARYHQATADRDQSERQRHESQQL [F8T]	3.66
YARYHQAVADRDQSERQRHESQQL [F8V]	3.92
YARYHQAWADRDQSERQRHESQQL [F8W]	1.4
YARYHQAYADRDQSERQRHESQQL [F8Y]	2.95
YARYHQAFCDRDQSERQRHESQQL [A9C]	1.67
YARYHQAFDDRDQSERQRHESQQL [A9D]	3.86
YARYHQAFEDRDQSERQRHESQQL [A9E]	3.57
YARYHQAFFDRDQSERQRHESQQL [A9F]	2.58
YARYHQAFGDRDQSERQRHESQQL [A9G]	2.6
YARYHQAFHDRDQSERQRHESQQL [A9H]	3.21

Variant	protein stability index
YARYHQAFIDRDQSERQRHESQQL [A9I]	3.12
YARYHQAFKDRDQSERQRHESQQL [A9K]	3.3
YARYHQAFLDRDQSERQRHESQQL [A9L]	3.49
YARYHQAFMDRDQSERQRHESQQL [A9M]	2.21
YARYHQAFNDRDQSERQRHESQQL [A9N]	3.09
YARYHQAFPDRDQSERQRHESQQL [A9P]	3.9
YARYHQAFQDRDQSERQRHESQQL [A9Q]	2.98
YARYHQAFRDRDQSERQRHESQQL [A9R]	2.35
YARYHQAFSDRDQSERQRHESQQL [A9S]	2.48
YARYHQAFTDRDQSERQRHESQQL [A9T]	3.36
YARYHQAFVDRDQSERQRHESQQL [A9V]	3.35
YARYHQAFYDRDQSERQRHESQQL [A9Y]	2.89
YARYHQAFAARDQSERQRHESQQL [D10A]	1.8
YARYHQAFACRDQSERQRHESQQL [D10C]	2.36
YARYHQAFAFRDQSERQRHESQQL [D10F]	1.99
YARYHQAFAGRDQSERQRHESQQL [D10G]	2.37
YARYHQAFAHRDQSERQRHESQQL [D10H]	2.19
YARYHQAFAIRDQSERQRHESQQL [D10I]	2.58
YARYHQAFAKRDQSERQRHESQQL [D10K]	3.05
YARYHQAFALRDQSERQRHESQQL [D10L]	2.29
YARYHQAFAMRDQSERQRHESQQL [D10M]	1.97
YARYHQAFANRDQSERQRHESQQL [D10N]	2.33
YARYHQAFAQRDQSERQRHESQQL [D10Q]	2.17
YARYHQAFARRDQSERQRHESQQL [D10R]	2.77

Variant	protein stability index
YARYHQAFASRDQSERQRHESQQL [D10S]	2.49
YARYHQAFATRDQSERQRHESQQL [D10T]	1.85
YARYHQAFAVRDQSERQRHESQQL [D10V]	2.32
YARYHQAFAWRDQSERQRHESQQL [D10W]	2.39
YARYHQAFAYRDQSERQRHESQQL [D10Y]	2.26
YARYHQAFADADQSERQRHESQQL [R11A]	2.4
YARYHQAFADCDQSERQRHESQQL [R11C]	2.14
YARYHQAFADDDQSERQRHESQQL [R11D]	3.59
YARYHQAFADEDQSERQRHESQQL [R11E]	3.29
YARYHQAFADFDQSERQRHESQQL [R11F]	1.99
YARYHQAFADGDQSERQRHESQQL [R11G]	2.82
YARYHQAFADHDQSERQRHESQQL [R11H]	2.32
YARYHQAFADIDQSERQRHESQQL [R11I]	2.1
YARYHQAFADKDQSERQRHESQQL [R11K]	2.46
YARYHQAFADLDQSERQRHESQQL [R11L]	1.98
YARYHQAFADMDQSERQRHESQQL [R11M]	2.54
YARYHQAFADNDQSERQRHESQQL [R11N]	2.83
YARYHQAFADPDQSERQRHESQQL [R11P]	3.03
YARYHQAFADQDQSERQRHESQQL [R11Q]	3.07
YARYHQAFADSDQSERQRHESQQL [R11S]	2.64
YARYHQAFADTDQSERQRHESQQL [R11T]	2.12
YARYHQAFADVDQSERQRHESQQL [R11V]	2.12
